Assay results taken from patent publication US12024544B2, “CCN3 and CCN3 peptides and analogs thereof for therapeutic use” (Rosalind Franklin University of Medicine & Science, priority 2010, dated 2024).
“Also recorded” adds a separate entry of the source.

Tests used:
[1] = test system: MMP-1; assay: MMP-1 production by human skin fibroblasts; type: cell-based
Text: To test this we used a cell culture model of skin healing/scarring, which employed the use of primary human skin fibroblasts derived from foreskins collected post circumcision. These have been used extensively in the past to grown in culture and treated with agents that are known to drive wound healing and or scarring. We were also interested in a rare form of skin fibrosis/scarring that can lead to systemic disease and death known as nephrogenic systemic fibrosis (NSF). NSF is a complication of NMR diagnostics in renal impaired patients, where gadolinium (GAD), a heavy metal, is used as a contrast agent, but in some cases appears to deposit in skin. Although the mechanism for development of skin fibrosis and subsequent systemic disease is not yet completely understood, we have developed a model that has allowed elucidation of the probable pathway to skin fibrosis (Bhagavathula, N., M. K. Dame, M. DaSilva, W. Jenkins, M. N. Aslam, P. Perone and J. Varani (2010)). “Fibroblast response to gadolinium: role for platelet-derived growth factor receptor.” Invest Radiol 45(12): 769-777). This disease is characterized as a hyperproliferative disease, and in our model it was shown that PDGF produced by resident skin fibroblasts are stimulated by GAD to increase their production of PDGF which acts to induce proliferation and the increased production of MMPs, regulators of ECM breakdown and thus turnover, including the major MMP, MMP-1. At the same time tissue inhibitors of MMPs (TIMPs) are also affected by exposure to GAD. […] It appears that local fibroblasts then respond to this increased TGF-beta by increasing their production of ECM, including predominantly collagen type 1.
We examined the role of CCN3 and CCNp in fibroproliferative/fibrotic responses in human dermal fibroblasts exposed to Omniscan, one of the gadolinium-based contrast agents associated with development of nephrogenic systemic fibrosis. These studies were carried out as we have previously described (Riser, B. L., N. Bhagavathula, P. Perone, K. Garchow, Y. Xu, G. J. Fisher, F. Najmabadi, D. Attili and J. Varani (2012)). “Gadolinium-induced fibrosis is counter-regulated by CCN3 in human dermal fibroblasts: a model for potential treatment of nephrogenic systemic fibrosis.” J Cell Commun Signal 6(2): 97-105.). In our studies, human dermal fibroblasts were exposed to Omniscan; or to PDGF and TGF-β1 as controls. Cellular proliferation was assessed along with MMP-1 (by ELISA and gelatin zymography), TIMP-1 (by ELISA) and COL1 (by ELISA) in the absence and presence of CCN3 and CCNp. CCN3 and CCNp38 was added to cells at 10 nM concentration and at the same time as PDGF. In parallel, CCN3 production was assessed in control and Omniscan-treated cells. In most case the results shown (each bar) are the mean of 3-5 separate experiments, using fibroblasts from different donors. CCN3 was produced in our laboratory from the human embryonic kidney cell line (HEK-293) transfected with the complete human CCN3 gene, and producing an approximate 55 kDa, full-length CCN3 product. A second source of CCN3 was obtained from Pepro Tech Corporation (Rocky Hill, NJ) and is produced in a prokaryote cell line.
Next we created and tested for efficacy, additional CCNp including those with the cysteines intact (native sequence) from CCNp37 and CCNp38 and those that were modified by either shortening the peptide by 1 or 2 amino acids or lengthening by one amino acid. These agents were added to human skin fibroblasts in increasing concentrations from 1 nM to 100 nM and compared to the equal concentration of CCN3 (SEQ. ID. NO: 67). They were added just prior to the addition of either TGF-beta or PDGF, depending on the experiment.

[2] = test system: BTBR Ob/Ob mouse; assay: BTBR Ob/Ob mouse model of diabetic renal disease; type: in vivo
Description: This was carried out using the BTBR Ob/Ob mouse strain that has a defective leptin receptor that results in increased appetite. As a result it rapidly gains weight over the control strain and becomes hyperglycemic at about one month of age, going on to develop renal disease resembling that in humans. This is regarded by some to be the rodent model best mirroring renal disease in humans as a complication of diabetes. Animals were treated with either rCCN3 (SEQ. ID. NO: 67) or CCNp38 (SEQ. ID. NO: 38) beginning at 9 weeks of age, when early renal disease has been documented. The disease was allowed to develop for 9 weeks, then treatment started. Mice were treated 3 times per week for 8 weeks. At 17 weeks, blood and urine were collected, and animals sacrificed with organ samples collected. The effect of treatment with either CCN3 (2 concentrations, 2 or 20× the circulating amounts) or mimic peptide (CCNp38, 2 concentrations, 20 or 200× the equivalent molar circulating concentration of CCN3) was tested. Assays to determine the effect of CCN3 or peptide on expression of target fibrosis genes and clinical pathology were determined using methods as previously described (Riser, Amer J Pathology 2009) and (McIntosh, L M, et al., Selective CCR2-targeted macrophage depletion ameliorates experimental mesangioproliferative glomerulonephritis, Clinical and Experimental Immunology, 2008, 155, 295-303).
This was carried out using the BT/BR Ob/Ob mouse strain that has a defective leptin receptor that results in increased appetite. As a result mice rapidly gain weight over the control strain and become hyperglycemic at about one month of age going on to develop renal disease resembling that in humans. This is regarded by some to be the best rodent model for mirroring renal disease in humans as a complication of diabetes. […] Animals were treated with either rCCN3 (SEQ. ID. NO: 67) or CCNp38 (SEQ. ID. NO: 38) beginning at 9 weeks of age, when early renal disease has been documented. Mice were treated for 8 weeks, then sacrificed and measured for renal disease and other complications, and the effect drug treatment. Test animals were documented to have developed diabetes by 9 weeks, and were randomized for treatment, thus providing equivalent blood glucose levels in each treated group.

B1: CCN3: full-length recombinant human CCN3 protein (SEQ. ID. No. 67), commercial (Pepro Tech) or made in HEK-293 (protein)
chain: MQVAATQRCPPQCPGRCPATPPTCAPGVRAVLDGCSCCLVCARQRGESCSDLEPCDESSGLYCDRSADPSNQTGICTAVEGDNCVFDGVIYRSGEKFQPSCKFQCTCRDGQIGCVPRCQLDVLLPEPNCPAPRKVEVPGECCEKWICGPDEEDSLGGLTLAAYRPEATLGVEVSDSSVNCIEQTTEWTACSKSCGMGFSTRVTNRNRQCEMLKQTRLCMVRPCEQEPEQPTDKKGKKCLRTKKSLKAIHLQFKNCTSLHTYKPRFCGVCSDGRCCTPHNTKTIQAEFQCSPGQIVKKPVMVIGTCTCHTNCPKNNEAFLQELELKTTRGKM
B1 was tested, and the “block of PDGF stimulated MMP-1 production” value ([1]; 1 nM, FIG. 25) was “able to block little or no MMP-1 production”, the “reduction in PDGF stimulated MMP-1 production” value ([1]; 10 nM, FIG. 26) was 27% and the “reduction in PDGF stimulated MMP-1 production” value ([1]; 100 nM, FIG. 27) was 30%. The “block of PDGF-induced increase in MMP-1 activity” value ([1]; PDGF, 10 nM, FIG. 17) was “able to block that increase”, the “effect on MMP-1 with TGF-beta” value ([1]; TGF-beta (no stimulating effect), FIG. 18) was “no effect” and the “effect on elevated plasma creatinine” value ([2]; 17 weeks of diabetes, 8 weeks of treatment 3 times per week, FIG. 35) was “reduces or blocks this pathology; also recorded: reduces or blocks this impairment”. The “effect on elevated albumin to creatinine ratio” value ([2]; 17 weeks of diabetes, 8 weeks of treatment, FIG. 36) was “greatly blocks this pathology; also recorded: greatly blocks this renal damage”, the “effect on mesangial expansion (PAS staining, image analysis)” value ([2]; 17 weeks of diabetes, 8 weeks of treatment, FIG. 37) was “greatly block this pathology and treats the disease; also recorded: greatly blocks this pathology” and the “effect on increased renal mRNA levels for CCN2” value ([2]; kidney, 8 weeks of treatment, FIG. 38) was “greatly reduces or blocks the increase”. The “effect on increased renal mRNA levels for Col1A2” value ([2]; kidney, 8 weeks of treatment, FIG. 39) was “greatly reduces or blocks the increase”.
